Among the data in patent US20260217845A1 (published 2026) are Kd values, retold here.

For experiment [1], the target named is T1, human TNFR2 (extracellular domain) (UniProt P20333 23-257).
T1 chain: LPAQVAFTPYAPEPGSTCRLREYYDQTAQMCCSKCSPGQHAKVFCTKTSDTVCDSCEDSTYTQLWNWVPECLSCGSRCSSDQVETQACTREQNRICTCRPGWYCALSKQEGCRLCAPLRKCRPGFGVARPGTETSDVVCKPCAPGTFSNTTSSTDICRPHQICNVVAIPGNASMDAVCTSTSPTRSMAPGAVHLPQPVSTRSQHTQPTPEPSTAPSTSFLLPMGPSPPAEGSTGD
The experiment is described as follows: SPR.

The target in experiment [2] is T1, human TNFR2 (extracellular domain). The experiment is described as follows: binding affinity.
For experiment [3] the target is unchanged. The experiment is described as follows: SPR.
The target is the same in experiment [4]. The experiment is described as follows: binding affinity; marked * on sheet.
Experiment [5] shares this target. The experiment is described as follows: SPR.
The target is the same in experiment [6]. The experiment is described as follows: SPR.
For experiment [7] the target is unchanged. The experiment is described as follows: SPR.

B1: ODY-37C7 (VHH)
VHH: EVQLVESGGGLVQPGGSLRLSCAASGFTFDDIAMTWVRQAPGKGLEWVSSIYSYGPNTYYADSVKGRFTISTDSAKNTLYLQMNSLKPEDTAVYYCAADSDLSTVVVGPHDYWGQGTQVTVSS
For B1, the Kd in experiment [1] and in experiment [2] was 13 nM throughout.

B2: ODY-35A10 (VHH)
VHH: EVQLVESGGGLVEAGGSLRLSCAASGRTFGSYTMGWFRQAPGREQEFLASIRRTGGSTSYADSVKGRFTISRDNAKKAVYLQMNSLKPEDTAVYYCAAAPTGRAFTYWGQGTQVTVSS
For B2, the Kd in experiment [3] and in experiment [4] was 48 nM in each case.

B3: ODY-31G3 (VHH)
VHH: EVQLVESGGGLVQAGGSLRVSCAASGSIFRADAMGWHRQVPGKPREFVAGIRSDGFTNYAEAVKGRFTISWDTVKNTVYLQMNSLKPEDTAVYTCYYQSLSSPNYGQVFWGQGTQVTVSS
In the case of B3, the Kd in experiment [5] and in experiment [2] was 7.9 nM throughout.

B4: ODY-33D4 (VHH)
VHH: EVQLVESGGGLVQAGGSLRLSCAASGRTFSDYGMGWFRQAPGKDSEFVAAINWSNGRTNYADSVKGRFTISRDNAKNTGYLEMNSLKVEDTAVYYCAATPSGKAYSYWGQGTQVTVSS
As to B4, the Kd in experiment [6] and in experiment [2] was 5.6 nM in each case.

B5: ODY-31D6 (VHH)
VHH: EVQLVESGGGLVQAGGSLRLSCAASGSIVSTNGMGWHRQVPGKGRELVAGIRSDGFTNYADSVKGRFTISSDNVKNTVYLQMNSLKAEDSGVYFCYYQALSSPNYGQTFWGQGTQVTVSS
Turning to B5, the Kd in experiment [7] and in experiment [2] was 19 nM throughout.
